Values of other authors as cited in patent publication US20230279355A1, “METHOD FOR THE IN VITRO OR EX VIVO AMPLIFICATION OF STEM CELLS OF BROWN OR BEIGE ADIPOCYTES” (CENTRE NATIONAL DE LA RECHERCHE SCIENTIFIQUE, priority 2020, published 2023).

System: UCP1
Conditions: described in the literature

B1: Epidermal Growth Factor (protein, UniProt P01133 23-1207, looked up)
Pro-epidermal growth factor: PQHWSCPEGTLAGNGNSTCVGPAPFLIFSHGNSIFRIDTEGTNYEQLVVDAGVSVIMDFHYNEKRIYWVDLERQLLQRVFLNGSRQERVCNIEKNVSGMAINWINEEVIWSNQQEGIITVTDMKGNNSHILLSALKYPANVAVDPVERFIFWSSEVAGSLYRADLDGVGVKALLETSEKITAVSLDVLDKRLFWIQYNREGSNSLICSCDYDGGSVHISKHPTQHNLFAMSLFGDRIFYSTWKMKTIWIANKHTGKDMVRINLHSSFVPLGELKVVHPLAQPKAEDDTWEPEQKLCKLRKGNCSSTVCGQDLQSHLCMCAEGYALSRDRKYCEDVNECAFWNHGCTLGCKNTPGSYYCTCPVGFVLLPDGKRCHQLVSCPRNVSECSHDCVLTSEGPLCFCPEGSVLERDGKTCSGCSSPDNGGCSQLCVPLSPVSWECDCFPGYDLQLDEKSCAASGPQPFLLFANSQDIRHMHFDGTDYGTLLSQQMGMVYALDHDPVENKIYFAHTALKWIERANMDGSQRERLIEEGVDVPEGLAVDWIGRRFYWTDRGKSLIGRSDLNGKRSKIITKENISQPRGIAVHPMAKRLFWTDTGINPRIESSSLQGLGRLVIASSDLIWPSGITIDFLTDKLYWCDAKQSVIEMANLDGSKRRRLTQNDVGHPFAVAVFEDYVWFSDWAMPSVMRVNKRTGKDRVRLQGSMLKPSSLVVVHPLAKPGADPCLYQNGGCEHICKKRLGTAWCSCREGFMKASDGKTCLALDGHQLLAGGEVDLKNQVTPLDILSKTRVSEDNITESQHMLVAEIMVSDQDDCAPVGCSMYARCISEGEDATCQCLKGFAGDGKLCSDIDECEMGVPVCPPASSKCINTEGGYVCRCSEGYQGDGIHCLDIDECQLGEHSCGENASCTNTEGGYTCMCAGRLSEPGLICPDSTPPPHLREDDHHYSVRNSDSECPLSHDGYCLHDGVCMYIEALDKYACNCVVGYIGERCQYRDLKWWELRHAGHGQQQKVIVVAVCVVVLVMLLLLSLWGAHYYRTQKLLSKNPKNPYEESSRDVRSRRPADTEDGMSSCPQPWFVVIKEHQDLKNGGQPVAGEDGQAADGSMQPTSWRQEPQLCGMGTEQGCWIPVSSDKGSCPQVMERSFHMPSYGTQTLEGGVEKPHSLLSANPLWQQRALDPPHQMELTQ
modifications: Pro-epidermal growth factor
expression of UCP1: able to inhibit the expression of UCP1
